From the nanobody polyreactivity screen of Harvey et al. (2022)

Assay: yeast display, Sf9 membrane polyspecificity reagent, FACS + sequencing; frameworks hold sequencing errors
Outline: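 Genes from sorted yeast were amplified by colony PCR, read by MiSeq 2 × 250 sequencing and filtered on CDR length. These cells carried a synthetic nanobody library in Saccharomyces cerevisiae BJ5465 and were sorted by FACS into low and high (top ~1%) gates on anti-HA and streptavidin fluorescence. Polyreactivity is labelled according to the gate of origin.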

Sequence | polyreactivity (PSR sort gate)
QVQLVESGGGLVQEGGSLRLSCASSGGIFDTNAKGWYRQARGKDREFVAAITGSGGSTYYADSVKGRFTISRDNAKNTVYLQMNSLIPEDTAVYYCAAPLSYYWVYIVRDGYDYWGQGTQVTVSS | low polyreactivity
QVQLVESGGGLVQEGGSLRLSCSASGSIFYVYAMGRYRPARGKDRELVAAISSIDGNTYYADSVKGRFTISRDNAKNTVYLQMNSLKPEETAVYYCAAAYYNTDYYYWGKGTQVTVSS | low polyreactivity
QVQLVESGGGLVQEGGSLRLTCAASGSTFIGNAMGGYRQAPGKERELVAAITSSGGSTYYADSVKGRFTISRDNAKNTVYLQMNSLKPEDTALYYCAAKTWARGHYGYQARSNYWGQGTQVTVSS | high polyreactivity
QVQLVESGGGLVQERGSLRLSCADSGFIFWYYAMGWDRQAPGKERELVAAISWSGDSTYYADSVKGRFTISRDNANNTVYLQMKSLKPEYTAVYYCAVYEELDVFYNGYDYWGQGTQVTVSS | high polyreactivity
QVQLVESGGGLVQGGGSLRLSCAASGGTIGRNAMGWYRQAPGKERELVANITRRGGSTYYADSVKGRFTISRDNAKNTVYLQMNSLKAEDTAVYYCAARDVYRGGLFDYWGQGTQVSVSS | high polyreactivity
QVQLVESGGGLVQGGGSLRLSCAASGITFCQYAMRWYRQAPGKERELVAGIRFSGSTTYYADSVKGRFTISRDYAKITVYLQMNSLKPEDTAVYDCNVDYYSGLYYYDSWGQGTQVTVSS | low polyreactivity
QVQLVESGGGLVQGGGSLRLSCAASGRIFKYYAMGWYRQAPGKERELVADISWRGGSTYYADSVKGRFTISRDNAKNTVYLQMNCLKPEDTAVYYCNAVSPRPGFDWGQGTQVTVSS | high polyreactivity
QVQLVESGGGLVQGGGSLRLSCAASGRIFTFYAMGWSRPAPGKARELVASITGGGNTYYADSVKGRFTISRDNAKNTVNLQMNSLKPEDTAVYYCAADDGYRELDYWGQGTQVTVSS | low polyreactivity
QVQLVESGGGLVQGGGSLRLSCAASGRIGKYAMGWYRQAPGKERELVATISSTGTTNYADSVKGRFTISRDNAKNTVYLQMNSLKPEDTAVYYCAARWEYVGYRRRYYRFDYWGQGTQVTVSS | high polyreactivity
QVQLVESGGGLVQGGGSLRLSCAASGRTLSYYAKGWYRQAPGKERELVADISWSGGSTYYADSVKGRFTISRDNAKNTVYLQMNSLKPEDTAVYYCAARVPGSIRSVGSVKQKYYYWGQGTQVTVSS | high polyreactivity
QVQLVESGGGLVQPGGSLLLSCAASRITFDHYAMAWYRRAPGKERELVAAITSGGNTNYADSVKGRFTISRDNAKNPVYLQMNSLKPEDTAVYYCNAGYDVCYYYWGKGTQVTVSS | low polyreactivity
QVQLVESGGGLVQPGGSLRLLFAASGSNFVYNEMGWYRQAPGKERELVAGIDWSGDRTYADSVKRRFTNSRDNAKNTVYLQMNSLKQEDTAVKYCNADEWLWDEIIPFAVDYWGQGTQVTVSS | low polyreactivity
QVQLVESGGGLVQPGGSLRLSCAASGFIFPSYDMGWYIQAPGKERELVAAITSDVNSYYADSVKGRFTISRDNAKNTVYLQMTSLKPEDTAFYSCNADADDYRDYQDYDYWGQGTQVTVSS | low polyreactivity
QVQLVESGGGLVQPGGSLRLSCAASGFTFYPYVMGWYRQAPGKERELVAPINSGGARTYYADSEKGRFTISRDNAKNTVYYQIIRLKPEDTAVYYCAARTVVGGRIYYYWGQGTQVTVSS | low polyreactivity
QVQLVESGGGLVQPGGSLRLSCAASGITFIPNALGWYRQAPGKEREFVAGITWSGGRTYYADSVKGRFTISRDNATNTVYLQMNSLKPEDTAVYYCAAEPPTYKLLDFWGQGTQVTVSS | low polyreactivity
QVQLVESGGGLVQPGGSLRLSCAASGRTLQRNAMVWYRQAPGKERELVAAISSSGGSTYYADSVKGRFTISRDNAKNTFYLQMNSLKPDDTAVYYCNTDSVYRYHYWGQGTEVTVSS | high polyreactivity
QVQLVESGGGLVQPGGSLRLSCAASGSIFSYNTMGWYRQAPGKERELVAAISGRGGSTNYADSVKGRFTISRDNAKNTVYLQMNSLKPEDTAVYYCAKETWVPYRNGFFPLKGDYWGQGTQVTVSS | low polyreactivity
QVQLVESGGGLVQPGGSLRLSCAASGSIFYGYTMGWYRQEPGKERELVAAIRKSGGSTNYADSVKWRFTISRDIAKNTVYLQMNSLKPEDTAVYYCAAAYYRGRGYFWGQGTQVTVSS | high polyreactivity
QVQLVESGGGLVQPGGSLRLSCAASGSTFDWYAMAWYRQAPGKQRELVAAISSDDSTYYADSVKGRFTISRDNAKNTVYLQMNSLKPEETAVYYCAFDVYSDYGDYGFWGQGTQVTVSS | low polyreactivity
QVQLVESGGGLVQSGGSLRLSCAASGFIFKLNAMGWYRPAPGKERELVATITRGGDTKYADSVKGRFTISRDNAKNTVYLQMNSLKPEDTAVEYCAARYTPSSYIYRFYNFYGYDYWGQGTQVTVSS | high polyreactivity
QVQLVESGGGLVQSGGSLRLSCAASGFIFLSYAMGWYRQAPGKERELVAAISRRGGSTYYADSVKGRFTISRDNAKYTVYLQMNSLKPEDNAVYYCAADYGRITYNYWGQGTQVTVSS | high polyreactivity
QVQLVESGGGLVQSGGSLRLSCAASGITFARYTMGWYRQAPGKVRELVAAISYAGNTYYADSVKGRFTISRDNAKNTVYLQMNSLKPEDTAVYYCAREYTYYPRWVGYDAYGEDYWGQGTQVTVSS | low polyreactivity

Sequence | polyreactivity (PSR sort gate)
QVQLVESGGGLVQSGGSLRLSCAASGITFDYYDMGWYRQAPGKERELVATITSDGSTTYADSVKGRFTISRDNAKNTVYLQMNSLKPEDTAVYYCDKRYWSYQYGYRMYYWGQGTQVTVSS | high polyreactivity
QVQLVESGGGLVQSGGSLRLSCAASGRIFARNAMGWYRQAPGKEREFVAAITFSGGSTYYADSVKGRFTISRDNAKNTVYLQMNSLKPEDTAVYYCAARSWRVLTREDYWGQGTQVTVSS | high polyreactivity
QVQLVESGGGLVQSGGSLRLSCAASGRIFHYNAMGWYRQAPGKERELVAVITTIGGDTYYADSVKGRFTISRDNAKNTVYLQMNSLKPEDTAVYYCARDRYDNPYDQDLDYWGQGTQVTVSS | low polyreactivity
QVQLVESGGGLVQSGGSLRLSCAASGRIFRYYAMGSYRQAPGKERELVSAITRGGSTNYADSVKGRFTISRDNAKNTVYLQMNSLKPEDTADYYCATRQSWYPRWMDYWGQGSQVTVSS | high polyreactivity
QVQLVESGGGLVQSGGSLRLSCAASGRIFVPNAMGWYRQAPGKERELVAAITGSGGSTYADSVKGRFTISRDNAKNTVYLQMNSLNPEDTAVYYCAKKTWYSYYWGQGTQVTVSS | high polyreactivity
QVQLVESGGGLVQSGGSLRLSCAASGRTFRYYAMGWYRQAPGKERELVAAISSSGDRTYYADSVKGRFTISRDNAKNTVYLQMNSLKPEDTAVYFCAADRGARGDYWGQGTQVTVSS | high polyreactivity
QVQLVESGGGLVQSGGSLRLSCAASGRTFYRYAMGWYRQAPGKERELVAAISYSTTRTYYADSVKGRFTISRDIAKNTVYLQMNSLKPEETAVYYCAAYGWSRFGYDYWGQGSQVTVSS | high polyreactivity
QVQLVESGGGLVQSGGSLRLSCAASGSIFDYYAMGWYRQAPGKERELVASINSSGTGTYYADSVKGRFTFSRDNAKNTVSLQVNSMKPEDTAVYYCATRQAVGYSSGRGYGYWGQGTQETVSS | low polyreactivity
QVQLVESGGGLVQSGGSLRLSCAASGSIFGYYAMGWYRRAPGKERELVAAISVSGGSTYYADSVKGRFTISRDNAKNTVYLLMNSLKPEDTAVYYCNKVQGSWRVPYYYWGQGTQVTVSS | high polyreactivity
QVQLVESGGGLVQSGGSLRLSCAASGSIFYTNAMGWYRQAPGKERELVAAISYGGTTTYADSVKGRFTISRDNAKNTVYLQMNSQKPEDTAVYYCNADWLYYGYWGYGHIWYDYWGQGTQVTVSS | low polyreactivity
QVQLVESGGGLVQSGGSLRLSCAASGSSFLWYGMGSYRQAPGKERELVASISRGGGTDYADSVKGRFTISRDNAKNTVYLQMNSLKPEDTAVYYCAATGVKRYDHWGQGTQVTVSS | low polyreactivity
QVQLVESGGGLVQSGGSLRLSCAASGSTFKYYAMGWYRQAPGKERELVAAISRSGGSTYYADSVKGRFTISRDNAKNTVYIQMNSLKPEDTAVYYCNAYYRYSFCELDKYGYWGQGTQVTVSS | high polyreactivity
QVQLVESGGGLVQSGGSLRLSCAASGSTFVSYDMGWYRQAPGKERELVADISWSGVSTYADSVKGRFTNSRDNAKNTVYLQMNSLKPEDTAVYYCAKDCDLYQRGGYYWGQGTQVTVSS | low polyreactivity
QVQLVESGGGLVQSGGSLRLSCAASGSTLSVYVMGWYRQAPGKERELVARIRSGGNTYYADSVKGRFTISRDNAKNTVYLLMNSLKPEDTAVYYCNADPSTGWYKYDYWGQGTQVTVSS | high polyreactivity
QVQLVESGGGLVQSGGSLRLSCAASGSTLYFKAMGWYRQAPGKERDLVAAITYDGGSTYYADSVKGRFTISRDNAKNTVYLQMNSLKPEDTAVYYCAGRTDGYRNNYWGQGTQVTVSS | high polyreactivity
QVQLVESGGGLVQSGGSLRLSCAASGYIFGYYAMGWYRQAPGKERELVADITWRGDSTYADSVKGRFTISRDNAKNTVYLQMNSLKPEDTAVYYCAADIATEYWYTGYDHWGQGTQVNVSS | low polyreactivity
QVQLVESGGGLVQSGGSLRLSCAASVRIFGPYVMGWYRQAPGKERELVAAISTSGTSTYDADSVKGRFTISRDNAKNTVYLQMNSLKPEDTAVYYCAKRSGALHRLMDYWGQGTQVTVSS | low polyreactivity
QVQLVESGGGLVQSGGSLRLSCAATGSTFWNYAMGWYRQAPGKERELVAAITRGSSTNYADSVKGRFTISRDNAKNTVYLQMNSMKPEDTAVYYCAKRVGRWSAFYYWGQGTQVTVSS | high polyreactivity
QVQLVESGGGLVQSGGSLRLSCAYSGRTFYRNTMGWYRHAPGKEREFVAAISATAGRTYYADSVKWRFTISRDNAKNTVYLQMNSLKPEDTAVYYCAAVPLRNRWANSWPALDYWGQGTLVTVSS | high polyreactivity
QVQLVESGGGLVQSGGSLRLSCDASGRIFSRYAMGWYIQAPGKEREFVAAISRSGTSTYYADSVKVRFTISRDNAKNTVYLQMNSLKPEDTAVYYCAADYPAVISIRRYDYWGQGTQVTVSS | low polyreactivity
QVQLVESGGGLVQSGGSLRLTCAASGTLFYAMGWSRQAPGKERELVATITQRGGSTYYADSVKGRFTLSRDNAKNTVYLQMNSLKPEDTAVYYCAAAIYRASRRRTSYSYDYCGQGTQVTVSS | high polyreactivity
